This note sets out measurements from patent US20250213713A1, “Antibody-Drug Conjugates Targeting uPARAP Comprising Exatecan Derivatives” (ADCENDO APS, priority 2022, published 2025).

The subject of assay [1] is JIMT-1 cells. Put plainly: Inhibition of in vitro proliferation of tumor cells (CTG), JIMT-1. It is filed as cell-based. To be noted: read-out: JIMT-1 IC50; Table 8, 6 days of culture. Here is the method: (§1) To test the inhibitory activity of the pharmaceutical compounds on the in vitro proliferation of NCI-N87, JIMT-1 and MBA-MB-231 tumor cells. The cells were treated with the compounds at different concentrations in vitro, and after 6 days of culture, the proliferation of cells was detected using the CTG (CellTiter-Glo® Luminescent Cell Viability Assay, Promega, Cat. No. G7558) reagent, and the in vitro activity of the compounds was evaluated according to the IC50 value. […]
(§2) There were 8 concentrations in total for the small molecule compounds: 300 nM, 100 nM, 30 nM, 10 nM, 3 nM, 1 nM, 0.3 nM, and 0.1 nM. • 5. Sample adding: the prepared samples to be detected at different concentrations were added to the culture plate, and two duplicate wells were set for each sample. […] Plate reading: the 96-well cell culture plate was taken out, placed in a microplate reader, and measured for the chemiluminescence using the microplate reader.
(§3) To test the inhibitory activity of the pharmaceutical compounds on the in vitro proliferation of NCI-N87, JIMT-1 and MBA-MB-231 tumor cells. The cells were treated with compounds at different concentrations in vitro, and after 6 days of culture, the proliferation of cells was detected using CTG (CellTiter-Glo® Luminescent Cell Viability Assay, Promega, Cat. No. G7558) reagents, and the in vitro activity of the compounds was evaluated according to the IC50 value. • 1. […]

The subject of assay [2] is NCI-N87 cells. Briefly: Inhibition of in vitro proliferation of tumor cells (CTG), NCI-N87. The conditions noted are these: read-out: NCI-N87 IC50; Table 8, 6 days of culture. It is filed as cell-based. Here is the method:
as §1, §2, §3

In assay [3] the target is T1, soluble full-length uPARAP (UniProt Q9UBG0 31-1414, limits assumed).
T1 construct: also called CD280
T1 sequence (looked up): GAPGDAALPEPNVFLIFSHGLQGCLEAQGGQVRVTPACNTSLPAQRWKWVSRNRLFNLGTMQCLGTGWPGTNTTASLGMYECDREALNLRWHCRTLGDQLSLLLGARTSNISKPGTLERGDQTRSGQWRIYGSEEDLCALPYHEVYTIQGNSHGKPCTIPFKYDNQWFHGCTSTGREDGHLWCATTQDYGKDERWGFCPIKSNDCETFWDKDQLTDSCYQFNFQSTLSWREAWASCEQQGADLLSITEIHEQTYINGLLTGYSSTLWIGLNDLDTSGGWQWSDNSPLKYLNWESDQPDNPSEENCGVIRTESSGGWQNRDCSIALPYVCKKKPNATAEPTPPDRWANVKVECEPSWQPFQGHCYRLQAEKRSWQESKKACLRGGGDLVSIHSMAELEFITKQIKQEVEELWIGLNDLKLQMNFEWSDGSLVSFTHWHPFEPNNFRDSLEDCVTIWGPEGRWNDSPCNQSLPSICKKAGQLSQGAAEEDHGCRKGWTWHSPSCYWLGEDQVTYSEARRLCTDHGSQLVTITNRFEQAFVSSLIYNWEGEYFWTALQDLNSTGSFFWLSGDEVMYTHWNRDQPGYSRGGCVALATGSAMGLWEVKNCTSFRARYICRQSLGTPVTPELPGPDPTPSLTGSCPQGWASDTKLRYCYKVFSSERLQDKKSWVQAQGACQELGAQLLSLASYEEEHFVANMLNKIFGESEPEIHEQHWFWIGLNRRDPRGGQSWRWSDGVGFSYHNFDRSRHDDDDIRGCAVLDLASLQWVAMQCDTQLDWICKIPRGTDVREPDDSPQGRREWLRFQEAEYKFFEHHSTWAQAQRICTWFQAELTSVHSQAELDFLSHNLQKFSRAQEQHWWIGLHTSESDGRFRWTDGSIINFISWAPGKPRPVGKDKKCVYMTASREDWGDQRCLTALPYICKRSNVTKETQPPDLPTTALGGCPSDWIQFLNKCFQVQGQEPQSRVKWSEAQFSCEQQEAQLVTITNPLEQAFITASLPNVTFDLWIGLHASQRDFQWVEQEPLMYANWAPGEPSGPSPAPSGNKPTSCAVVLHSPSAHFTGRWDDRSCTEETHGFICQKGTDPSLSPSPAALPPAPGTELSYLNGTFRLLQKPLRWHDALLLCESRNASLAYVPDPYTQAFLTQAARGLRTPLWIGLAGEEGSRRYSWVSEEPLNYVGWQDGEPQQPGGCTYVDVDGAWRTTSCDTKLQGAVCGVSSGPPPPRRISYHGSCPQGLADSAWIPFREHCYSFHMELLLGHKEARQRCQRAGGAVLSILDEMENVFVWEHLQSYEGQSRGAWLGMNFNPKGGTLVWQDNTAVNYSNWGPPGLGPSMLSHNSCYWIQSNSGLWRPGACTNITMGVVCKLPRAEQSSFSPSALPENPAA
Briefly: SPR (Biacore 2000), antibody captured on anti-human Fc CM5 chip, soluble full-length uPARAP as analyte, 25 C, Langmuir 1:1 global fit. Here is the method:
(§4) SPR analyses were performed for determination of the affinity of the obtained antibodies towards uPARAP. These analyses were performed using a Biacore 2000 instrument (Biaffin GmbH, Kassel, Germany) using a CM5 sensor chip with an anti-human Fc capture surface for antibody binding. The analysis temperature was set at 25° C. Binding of antibody onto this surface was followed by passing soluble full-length uPARAP over the chip, and the resulting association and dissociation rates were derived from the resulting binding curves. For kinetic interaction analyses, a flowrate of 30 μL/min was used and the analysis buffer consisted of 10 mM HEPES pH 7.4, 150 mM NaCl, 3 mM EDTA, 0.05% Tween 20.
(§5) LC4HC3 and LC0HC0 were analyzed by SPR as described in Materials and Methods above. In particular, the binding kinetics of LC4HC3 were compared with those of LC0HC0 (Table 5).
A general note: Surface plasmon resonance follows binding to a sensor surface in real time, without labels.

Assay [4] has as its target T1, soluble full-length uPARAP. Put plainly: SPR (Biacore 2000), ratio of KD values against LC0HC0. Here is the method: as §4, §5

On to `CC[C@@]1(O)C(=O)OCc2c1cc1n(c2=O)Cc2c-1nc1cc(F)c(C)c3c1c2[C@@H](NC(=O)CCS)CC3` [P-III-2], for which the IC50 in assay [1] and in assay [2] was 108 nM throughout.

On to `CC[C@@]1(O)C(=O)OCc2c1cc1n(c2=O)Cc2c-1nc1cc(F)c(C)c3c1c2[C@@H](NC(=O)CC(C)(C)O)CC3` [P-III-21], for which the IC50 (usually the concentration at which inhibition is half-maximal) worked out at 2.87 nM in assay [1] and 4.75 nM in assay [2].

B1: 980.2 LC0HC0 (chimeric antibody: variable domains of murine 9b7 fused to human IgG1 kappa constant regions) (antibody, V domains shown)
VH: QVHLVQSGPELKKPGETVKISCKASGYIFIDYGMHWVKQAPGKGLKWMGSINTKSGVSTYAAEFKGRFAFSLETSASTAYLQINNLKNEDTATYFCARPPYYSQYGSYWGQGTLVTVSA
VL: DIVMTQSQKFMSTSVGDRVSVTCKASQNVDTYVVWYQQKPGQSPKPLIYSASSRFSGVPDRFTGTGSGTDFTLTINNVQSEDLAEYFCQQYHNSPLTFGGGTKLEIKR
notes: Complete IgG1 kappa, expressed in CHO cells; captured by anti-human Fc in the SPR assay; also called parental antibody
On to B1, for which, in assay [3], the Kd (usually the free concentration of one partner at which half of the binding sites on the other are occupied at equilibrium, for simple one-to-one binding) is 0.86 nM; the koff – broadly, the rate constant with which the complex falls apart – amounted to 5.33e-05 s⁻¹; the kon (in general, the rate constant with which the complex forms) came to 62300 M⁻¹ s⁻¹.

B2: 980.2 LC4HC3 (humanized 9b7 antibody) (antibody, human IgG1, kappa, V domains shown)
VH: QVQLVQSGAEVKKPGASVKVSCKASGYIFIDYGMHWVRQAPGQRLEWMGSINTKSGVSTYAAEFKGRVTIYSDTSASTAYMELSSLRSEDTAVYFCARPPYYSQYGSYWGQGTLVTVSS
VL: EIVMTQSPDSLAVSLGERATINCKASQNVDTYVVWYQQKPGQPPQPLIYSASSRFSGVPDRFSGSGSGTDFTLTISSLQAEDVAIYYCQQYHNSPLTFGGGTKVEIKR
notes: Complete IgG1 kappa, expressed in CHO cells; captured by anti-human Fc in the SPR assay
Consider B2, for which, in assay [3], the Kd was 0.5 nM, the koff was found to be 4.04e-05 s⁻¹ and the kon came to 81300 M⁻¹ s⁻¹. For the same molecule, the “fold higher ligand affinity than LC0HC0” value in assay [4] is around 1.7 fold.
